The results in this text go back to the RNAGym collection of RNA variant scans (doi:10.1093/molbev/msab373).

B1: Azoarcus group I ribozyme (parent)
chain: GUGCCUUGCGCCGGGAAACCACGCAAGGGAUGGUGUCAAAUUCGGCGAAACCUAAGCGCCCGCCCGGGCGUAUGGCAACGCCGAGCCAAGCUUCGGCGCCUGCGCCGAUGAAGGUGUAGAGACUAGACGGCACCCACCUAAGGCAAACGCUAUGGUGAAGGCAUAGUCCAGGGAGUGGCGAAAGUCACACAAACCGG

In the series the parent is B1. As to the kind of experiment: reverse-splicing fitness (ratio to wild type); higher = more active; in vitro selection; Mg2+ level not given. In short, it runs like this:
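An in vitro group I ribozyme library with randomized positions was T7-transcribed and gel-purified. In triplicate, 10 pmol RNA in EPPS pH 7.5 was reacted with 50 pmoles of a 30-nt RNA substrate for 1 h at 37 °C across several added MgCl2 levels (1–48 mM), then stopped with EDTA. Products were reverse transcribed from a substrate-complementary primer, PCR-amplified and sequenced (HiSeq 4000). Fitness is a variant's read proportion after selection over that before, normalised to wild type.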
As for C82U A111U A120C A145C C150U C169A, the reverse-splicing fitness was determined as 0.00709.

In the case of C82U A111U A120C A145C C150U C169U, the reverse-splicing fitness was found to be 0.00899.

Take C82U A111U A120C A145C C150U C169G: the reverse-splicing fitness was found to be 0.00639.

C82U A111U A120C A145C U176C: the reverse-splicing fitness worked out at 0.0132.

On to C82U A111U A120C A145C U176A, for which the reverse-splicing fitness came out at 0.0125.

Regarding C82U A111U A120C A145C U176G, the reverse-splicing fitness stood at 0.00539.

With C82U A111U A120C A145C C150U U176A, the reverse-splicing fitness came out at 0.00801.

Regarding C82U A111U A120C A145C C150U U176G, the reverse-splicing fitness came out at 0.00423.

In the case of C82U A111U A120C A145C C150U U176C, the reverse-splicing fitness was 0.00856.

For C82U A111G A145G C169U U176G, the reverse-splicing fitness came to 0.0046.

Consider C82U A111G A145G C169U U176C, for which the reverse-splicing fitness is 0.0129.

On to C82U A111G A145G C169U U176A, for which the reverse-splicing fitness stood at 0.0117.

C82U A111U A120C A145C C150A C169G U176G: the reverse-splicing fitness was determined as 0.00543.

On to C82U A111U A120C A145C C150A C169G U176C, for which the reverse-splicing fitness amounted to 0.0108.

In the case of C82U A111U A120C A145C C150A C169G U176A, the reverse-splicing fitness stood at 0.0195.

C82U A111U A120C A145C C150A C169A U176C: the reverse-splicing fitness came to 0.0057.

C82U A111U A120C A145C C150A C169A U176A: the reverse-splicing fitness was determined as 0.00878.

For the variant C82U A111U A120C A145C C150A C169A U176G, the reverse-splicing fitness was 0.00538.

As for C82U A111U A120C A145G C150A C169A U176A, the reverse-splicing fitness stood at 0.0207.

For the variant C82U A111U A120C A145G C150A C169A U176G, the reverse-splicing fitness worked out at 0.0059.

With C82U A111U A120C A145G C150A C169A U176C, the reverse-splicing fitness stood at 0.0189.

For C82U A111G C150G C169U U176C, the reverse-splicing fitness is 0.0122.

As to C82U A111G C150G C169U U176A, the reverse-splicing fitness was found to be 0.00707.

For C82U A111G C150G C169U U176G, the reverse-splicing fitness came to 0.00511.

Turning to C82U A111U A120C A145G C150G C169A U176C, the reverse-splicing fitness was found to be 0.0137.

Regarding C82U A111U A120C A145G C150G C169A U176A, the reverse-splicing fitness is 0.0133.

Turning to C82U A111U A120C A145G C150G C169A U176G, the reverse-splicing fitness stood at 0.00845.

Take C82U A111G A145U: the reverse-splicing fitness stood at 0.462.

In the case of C82U A111G C150U C169U U176A, the reverse-splicing fitness amounted to 0.0126.

Turning to C82U A111G C150U C169U U176C, the reverse-splicing fitness came to 0.0133.

Turning to C82U A111G C150U C169U U176G, the reverse-splicing fitness was determined as 0.00589.

C82U A111U A120C A145C C150A C169G: the reverse-splicing fitness came to 0.00632.

For C82U A111U A120C A145C C150A C169A, the reverse-splicing fitness is 0.00749.

Regarding C82U A111U A120C A145C C150A C169U, the reverse-splicing fitness stood at 0.0102.

Consider C82U A111U, for which the reverse-splicing fitness stood at 0.327.

C82U A111U A120C A145G C150A C169G U176A: the reverse-splicing fitness came to 0.0169.

Regarding C82U A111U A120C A145G C150A C169G U176G, the reverse-splicing fitness is 0.00516.

With C82U A111U A120C A145G C150A C169G U176C, the reverse-splicing fitness is 0.0229.

Regarding C82U A111G A145U C169U U176C, the reverse-splicing fitness turned out to be 0.00988.

In the case of C82U A111G A145U C169U U176A, the reverse-splicing fitness was 0.012.

Turning to C82U A111G A145U C169U U176G, the reverse-splicing fitness was 0.00468.

Consider C82U A111U A120C A145G C169A U176C, for which the reverse-splicing fitness worked out at 0.0232.

Consider C82U A111U A120C A145G C169A U176A, for which the reverse-splicing fitness is 0.0202.

In the case of C82U A111U A120C A145G C169A U176G, the reverse-splicing fitness came out at 0.00456.

For C82U A111G U176A, the reverse-splicing fitness was 0.193.

Take C82U A111G U176G: the reverse-splicing fitness stood at 0.0517.

As for C82U A111G U176C, the reverse-splicing fitness came to 0.274.

For the variant C82U A111G A145U C150U C169U U176G, the reverse-splicing fitness is 0.0051.

In the case of C82U A111G A145U C150U C169U U176C, the reverse-splicing fitness worked out at 0.0118.

Consider C82U A111G A145U C150U C169U U176A, for which the reverse-splicing fitness was 0.0117.

On to C82U A111G C150A C169G U176A, for which the reverse-splicing fitness was 0.0207.

For C82U A111G C150A C169G U176C, the reverse-splicing fitness is 0.0199.

C82U A111G C150A C169G U176G: the reverse-splicing fitness amounted to 0.00673.

Regarding C82U A111U A120C A145U C150U C169U U176C, the reverse-splicing fitness worked out at 0.0157.

Turning to C82U A111U A120C A145U C150U C169U U176A, the reverse-splicing fitness was 0.0145.

In the case of C82U A111U A120C A145U C150U C169U U176G, the reverse-splicing fitness came to 0.00516.

As to C82U A111G A145G U176A, the reverse-splicing fitness amounted to 0.201.

On to C82U A111G A145G U176G, for which the reverse-splicing fitness is 0.048.

Turning to C82U A111G A145G U176C, the reverse-splicing fitness was determined as 0.265.

For the variant C82U A111U A120C A145C C169G U176G, the reverse-splicing fitness amounted to 0.00439.

For the variant C82U A111U A120C A145C C169G U176A, the reverse-splicing fitness was determined as 0.0202.

With C82U A111U A120C A145C C169G U176C, the reverse-splicing fitness is 0.0105.

For C82U A111G A145U C150A C169A U176G, the reverse-splicing fitness was 0.00532.

As to C82U A111G A145U C150A C169A U176A, the reverse-splicing fitness worked out at 0.0129.

C82U A111G A145U C150A C169A U176C: the reverse-splicing fitness came to 0.00854.

In the case of C82U A111U A120C A145C C150G C169G U176C, the reverse-splicing fitness amounted to 0.00632.

As to C82U A111U A120C A145C C150G C169G U176G, the reverse-splicing fitness is 0.0044.

C82U A111U A120C A145C C150G C169G U176A: the reverse-splicing fitness is 0.00839.

As to C82U A111U A120C A145U C150A C169A U176C, the reverse-splicing fitness was determined as 0.0094.

Turning to C82U A111U A120C A145U C150A C169A U176A, the reverse-splicing fitness was 0.0106.

Turning to C82U A111U A120C A145U C150A C169A U176G, the reverse-splicing fitness stood at 0.00478.

For the variant C82U A111U A120C A145U C150U U176A, the reverse-splicing fitness came to 0.0114.

Turning to C82U A111U A120C A145U C150U U176C, the reverse-splicing fitness was 0.0147.

As for C82U A111U A120C A145U C150G C169U U176C, the reverse-splicing fitness was 0.0122.

For C82U A111U A120C A145U C150G C169U U176A, the reverse-splicing fitness is 0.00894.

Regarding C82U A111U A120C A145U C150G C169U U176G, the reverse-splicing fitness was 0.00523.

As to C82U A111U A120C A145G C150G U176A, the reverse-splicing fitness worked out at 0.00644.

In the case of C82U A111U A120C A145G C150G U176G, the reverse-splicing fitness was found to be 0.00575.

Turning to C82U A111U A120C A145G C150G U176C, the reverse-splicing fitness amounted to 0.0109.

As to C82U A111G C150G C169G U176C, the reverse-splicing fitness worked out at 0.00418.

Regarding C82U A111G C150G C169G U176G, the reverse-splicing fitness came to 0.00525.

As for C82U A111G C150G C169G U176A, the reverse-splicing fitness was 0.0075.

Turning to C82U A111U A120C A145U C150U C169G U176G, the reverse-splicing fitness was determined as 0.00554.
